Laboratory results taken from the supplement of paper PMC10065799, “High-throughput profiling of sequence recognition by tyrosine kinases and SH2 domains using bacterial peptide display” (eLife, 2023).

Tests used:
AncSZ = experiment: phosphorylation enrichment, bacterial display (enrichment ratio); higher = better substrate or ligand; peptides without Tyr show the background
EPHB1 = EPHB1 (UniProt P54762); experiment: as above
EPHB2 = EPHB2 (UniProt P29323); experiment: as above
FGFR1 = FGFR1 (UniProt P11362); experiment: as above
FGFR3 = FGFR3 (UniProt P22607); experiment: as above
Chain of FGFR3 (P22607 whole entry, looked up): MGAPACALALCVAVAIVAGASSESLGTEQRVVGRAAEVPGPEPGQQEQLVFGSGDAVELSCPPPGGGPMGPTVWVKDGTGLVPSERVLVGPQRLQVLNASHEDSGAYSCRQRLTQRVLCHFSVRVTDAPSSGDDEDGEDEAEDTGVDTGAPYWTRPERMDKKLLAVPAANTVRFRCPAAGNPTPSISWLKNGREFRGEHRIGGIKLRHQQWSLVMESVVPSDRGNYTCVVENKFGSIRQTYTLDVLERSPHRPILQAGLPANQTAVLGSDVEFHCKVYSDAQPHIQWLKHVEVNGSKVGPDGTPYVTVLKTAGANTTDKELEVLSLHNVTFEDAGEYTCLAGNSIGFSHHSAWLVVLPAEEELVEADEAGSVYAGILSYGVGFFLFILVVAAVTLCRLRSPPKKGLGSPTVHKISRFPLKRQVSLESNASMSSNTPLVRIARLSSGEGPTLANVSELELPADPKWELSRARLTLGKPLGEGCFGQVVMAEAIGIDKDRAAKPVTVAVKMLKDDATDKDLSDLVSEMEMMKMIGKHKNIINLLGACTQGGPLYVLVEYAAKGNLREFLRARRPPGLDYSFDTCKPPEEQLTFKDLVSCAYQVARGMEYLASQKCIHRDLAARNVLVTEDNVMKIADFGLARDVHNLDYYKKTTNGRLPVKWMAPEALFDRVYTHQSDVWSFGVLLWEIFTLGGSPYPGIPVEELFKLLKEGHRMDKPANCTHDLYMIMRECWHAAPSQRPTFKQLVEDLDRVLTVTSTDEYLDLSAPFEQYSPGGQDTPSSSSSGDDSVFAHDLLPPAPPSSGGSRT

Fer (mouse) = experiment: as above
Fes = Fes (UniProt P07332); experiment: as above
Chain of Fes (P07332 whole entry, looked up): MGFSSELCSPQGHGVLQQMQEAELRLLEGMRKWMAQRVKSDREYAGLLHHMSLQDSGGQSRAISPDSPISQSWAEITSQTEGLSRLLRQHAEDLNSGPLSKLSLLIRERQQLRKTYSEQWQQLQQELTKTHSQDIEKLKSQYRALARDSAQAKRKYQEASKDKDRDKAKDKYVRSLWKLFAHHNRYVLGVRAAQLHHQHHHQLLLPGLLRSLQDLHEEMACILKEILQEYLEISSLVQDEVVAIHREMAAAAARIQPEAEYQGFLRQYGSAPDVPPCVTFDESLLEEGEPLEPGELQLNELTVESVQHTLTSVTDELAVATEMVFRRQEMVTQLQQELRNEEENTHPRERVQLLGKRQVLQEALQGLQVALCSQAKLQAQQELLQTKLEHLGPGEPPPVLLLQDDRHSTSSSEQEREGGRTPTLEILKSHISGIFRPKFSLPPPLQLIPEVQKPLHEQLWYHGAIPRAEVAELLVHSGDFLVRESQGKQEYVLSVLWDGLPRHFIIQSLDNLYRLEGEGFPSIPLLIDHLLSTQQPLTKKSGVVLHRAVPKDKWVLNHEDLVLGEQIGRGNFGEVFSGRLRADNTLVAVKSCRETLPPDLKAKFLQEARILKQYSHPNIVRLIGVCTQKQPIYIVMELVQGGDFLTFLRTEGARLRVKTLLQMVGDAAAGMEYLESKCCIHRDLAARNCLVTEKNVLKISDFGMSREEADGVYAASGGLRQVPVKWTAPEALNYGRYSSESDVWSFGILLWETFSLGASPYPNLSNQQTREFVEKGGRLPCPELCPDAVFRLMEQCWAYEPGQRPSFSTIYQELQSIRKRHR

Fyn = Fyn (UniProt P06241); experiment: as above
Chain of Fyn (P06241 whole entry, looked up): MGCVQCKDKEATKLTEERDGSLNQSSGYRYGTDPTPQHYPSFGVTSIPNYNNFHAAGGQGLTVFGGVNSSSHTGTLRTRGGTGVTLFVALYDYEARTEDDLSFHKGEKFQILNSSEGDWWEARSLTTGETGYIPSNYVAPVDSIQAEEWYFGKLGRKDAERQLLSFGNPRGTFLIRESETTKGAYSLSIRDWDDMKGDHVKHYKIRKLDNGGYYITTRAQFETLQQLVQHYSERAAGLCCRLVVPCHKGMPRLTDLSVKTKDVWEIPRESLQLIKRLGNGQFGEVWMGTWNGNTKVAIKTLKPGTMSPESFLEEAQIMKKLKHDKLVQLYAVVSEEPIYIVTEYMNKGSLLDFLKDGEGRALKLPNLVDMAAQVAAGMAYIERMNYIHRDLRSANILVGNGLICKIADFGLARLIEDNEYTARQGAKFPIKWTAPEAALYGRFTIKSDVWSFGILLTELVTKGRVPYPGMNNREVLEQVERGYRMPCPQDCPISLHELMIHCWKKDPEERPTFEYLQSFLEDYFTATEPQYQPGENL

Hck = Hck (UniProt P08631); experiment: as above
Chain of Hck (P08631 whole entry, looked up): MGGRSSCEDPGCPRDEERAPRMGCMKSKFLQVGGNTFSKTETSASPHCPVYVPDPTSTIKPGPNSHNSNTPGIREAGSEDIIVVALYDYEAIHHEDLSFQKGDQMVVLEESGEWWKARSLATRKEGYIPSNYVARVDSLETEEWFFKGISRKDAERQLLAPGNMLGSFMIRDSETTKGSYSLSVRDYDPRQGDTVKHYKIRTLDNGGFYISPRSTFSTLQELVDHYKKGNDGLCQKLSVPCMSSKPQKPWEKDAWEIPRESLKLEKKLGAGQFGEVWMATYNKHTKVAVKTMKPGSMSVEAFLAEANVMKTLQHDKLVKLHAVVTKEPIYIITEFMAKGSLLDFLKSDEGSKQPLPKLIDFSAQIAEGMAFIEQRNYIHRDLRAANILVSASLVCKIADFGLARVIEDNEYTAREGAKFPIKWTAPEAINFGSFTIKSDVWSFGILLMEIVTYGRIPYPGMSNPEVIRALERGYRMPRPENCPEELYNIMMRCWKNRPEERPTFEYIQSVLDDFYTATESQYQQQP

Jak2 = Jak2 (UniProt O60674); experiment: as above
Chain of Jak2 (O60674 whole entry, looked up): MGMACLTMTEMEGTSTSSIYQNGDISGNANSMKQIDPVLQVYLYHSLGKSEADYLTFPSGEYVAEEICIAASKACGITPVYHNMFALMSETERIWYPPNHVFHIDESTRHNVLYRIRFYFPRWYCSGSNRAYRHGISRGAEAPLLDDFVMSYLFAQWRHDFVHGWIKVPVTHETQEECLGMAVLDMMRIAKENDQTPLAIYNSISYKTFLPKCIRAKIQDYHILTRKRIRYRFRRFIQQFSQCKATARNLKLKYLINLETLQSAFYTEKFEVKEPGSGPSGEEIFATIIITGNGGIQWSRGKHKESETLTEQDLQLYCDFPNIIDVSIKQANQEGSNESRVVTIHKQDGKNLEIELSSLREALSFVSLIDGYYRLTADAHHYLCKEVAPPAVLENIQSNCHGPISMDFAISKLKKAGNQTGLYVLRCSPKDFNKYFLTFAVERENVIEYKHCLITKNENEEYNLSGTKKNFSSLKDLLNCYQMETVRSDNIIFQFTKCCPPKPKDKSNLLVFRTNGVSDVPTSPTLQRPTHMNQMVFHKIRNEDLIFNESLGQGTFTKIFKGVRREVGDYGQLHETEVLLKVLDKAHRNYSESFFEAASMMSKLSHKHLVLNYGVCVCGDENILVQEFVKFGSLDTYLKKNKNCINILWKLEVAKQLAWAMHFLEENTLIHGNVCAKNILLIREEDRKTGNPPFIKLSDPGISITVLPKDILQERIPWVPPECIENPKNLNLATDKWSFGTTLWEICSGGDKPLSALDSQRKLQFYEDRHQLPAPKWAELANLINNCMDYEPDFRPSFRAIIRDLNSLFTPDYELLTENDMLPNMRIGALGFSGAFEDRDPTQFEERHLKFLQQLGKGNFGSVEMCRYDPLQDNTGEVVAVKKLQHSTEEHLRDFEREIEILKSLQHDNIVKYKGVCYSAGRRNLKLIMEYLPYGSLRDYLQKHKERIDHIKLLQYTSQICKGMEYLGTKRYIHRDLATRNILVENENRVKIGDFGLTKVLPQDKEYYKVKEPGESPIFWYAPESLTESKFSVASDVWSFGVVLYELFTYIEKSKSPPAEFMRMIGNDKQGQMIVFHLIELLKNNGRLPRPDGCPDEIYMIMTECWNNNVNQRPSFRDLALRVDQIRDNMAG

MERTK = MERTK (UniProt Q12866); experiment: as above
Chain of MERTK (Q12866 whole entry, looked up): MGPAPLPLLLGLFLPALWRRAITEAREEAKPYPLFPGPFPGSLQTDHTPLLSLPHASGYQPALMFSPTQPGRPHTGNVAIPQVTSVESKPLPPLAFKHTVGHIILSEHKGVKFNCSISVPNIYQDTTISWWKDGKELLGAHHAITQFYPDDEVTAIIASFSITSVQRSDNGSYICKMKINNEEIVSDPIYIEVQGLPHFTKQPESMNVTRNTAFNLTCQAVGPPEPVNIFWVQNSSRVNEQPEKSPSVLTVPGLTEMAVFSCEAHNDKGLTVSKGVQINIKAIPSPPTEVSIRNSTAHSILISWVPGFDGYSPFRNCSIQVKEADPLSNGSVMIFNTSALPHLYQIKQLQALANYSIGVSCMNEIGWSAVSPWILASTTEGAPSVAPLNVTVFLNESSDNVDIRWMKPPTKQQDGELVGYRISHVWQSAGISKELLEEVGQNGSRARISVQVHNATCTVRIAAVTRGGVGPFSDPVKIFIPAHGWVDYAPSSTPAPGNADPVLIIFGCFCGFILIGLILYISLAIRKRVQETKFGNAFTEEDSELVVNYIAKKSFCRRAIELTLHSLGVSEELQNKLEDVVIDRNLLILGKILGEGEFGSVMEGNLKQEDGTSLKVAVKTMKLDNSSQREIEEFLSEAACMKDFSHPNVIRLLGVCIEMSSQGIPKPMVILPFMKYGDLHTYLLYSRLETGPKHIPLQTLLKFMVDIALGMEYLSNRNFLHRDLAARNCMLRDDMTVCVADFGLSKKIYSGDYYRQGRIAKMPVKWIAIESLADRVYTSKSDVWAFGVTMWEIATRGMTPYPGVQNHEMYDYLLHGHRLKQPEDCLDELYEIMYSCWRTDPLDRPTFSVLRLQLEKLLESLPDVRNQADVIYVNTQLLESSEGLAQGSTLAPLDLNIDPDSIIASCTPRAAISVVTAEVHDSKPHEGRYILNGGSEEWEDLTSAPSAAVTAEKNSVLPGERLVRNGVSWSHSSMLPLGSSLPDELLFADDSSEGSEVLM

c-Abl (mouse) = experiment: as above
c-Src = experiment: as above
Grb2 SH2 = Grb2 SH2 (UniProt P62993); experiment: SH2 binding enrichment of the phosphorylated peptide, bacterial display (enrichment ratio); higher = better substrate or ligand; peptides without Tyr show the background
Chain of Grb2 SH2 (P62993 whole entry, looked up): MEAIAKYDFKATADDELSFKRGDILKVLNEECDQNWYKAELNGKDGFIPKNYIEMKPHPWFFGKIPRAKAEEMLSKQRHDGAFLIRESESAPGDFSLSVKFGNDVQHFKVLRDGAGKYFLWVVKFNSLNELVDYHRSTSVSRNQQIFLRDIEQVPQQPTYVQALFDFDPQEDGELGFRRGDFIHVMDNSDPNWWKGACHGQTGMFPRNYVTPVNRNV

SHP2-C SH2 = experiment: as above
c-Src SH2 = experiment: as above
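Throughout, for SH2 binding enrichment of the phosphorylated peptide, bacterial display: peptide library displayed on the E. coli surface as eCPX fusions, selected cells deep-sequenced, score is each peptide's frequency after selection divided by its frequency in the input.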
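Throughout, for phosphorylation enrichment, bacterial display: 11-residue human phosphosite peptides and single-mutation variants displayed on the E. coli surface, counted by deep sequencing, each peptide's frequency after selection divided by its frequency in the unselected input library; frequency after pTyr selection over input frequency; kinase dosed for 20-30% of maximal phosphorylation in three min.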

Row | Sequence | phosphorylation enrichment (AncSZ) | phosphorylation enrichment (EPHB1) | phosphorylation enrichment (EPHB2) | phosphorylation enrichment (FGFR1) | phosphorylation enrichment (FGFR3) | phosphorylation enrichment (Fer (mouse)) | phosphorylation enrichment (Fes) | phosphorylation enrichment (Fyn) | phosphorylation enrichment (Hck) | phosphorylation enrichment (Jak2) | phosphorylation enrichment (MERTK) | phosphorylation enrichment (c-Abl (mouse)) | phosphorylation enrichment (c-Src) | SH2 binding enrichment (Grb2 SH2) | SH2 binding enrichment (SHP2-C SH2) | SH2 binding enrichment (c-Src SH2)
1 | EATKGHLDDPT [G6PD_Y322_Y322H] | 0.851 | 0.643 | 0.488 | 0.467 | 0.664 | 0.55 | 1.04 | 0.584 | 0.496 | 0.856 | 0.448 | 0.821 | 0.453 | 0.815 | 0.6 | 0.598
2 | LFIDSYEKDVA [PGM1_Y521_YF] | 2.09 | 1.34 | 0.755 | 0.855 | 1.48 | 0.767 | 2.05 | 1.41 | 0.816 | 1.22 | 0.848 | 1.36 | 0.694 | 0.835 | 0.728 | 0.787
3 | MKGDFYRSLAE [YWHAG_Y131_Y133S_YF] | 0.697 | 0.334 | 0.437 | 0.422 | 0.52 | 0.467 | 0.73 | 0.404 | 0.49 | 0.811 | 0.37 | 0.585 | 0.441 | 0.758 | 0.551 | 0.352
4 | DLLMQYPKAQG [FAM83C_Y600] | 0.812 | 0.498 | 0.301 | 0.341 | 0.467 | 0.452 | 0.543 | 0.385 | 0.364 | 0.496 | 0.356 | 0.491 | 0.352 | 0.882 | 0.763 | 0.485
5 | FHKALYTVRSY [PDE6C_Y266] | 0.814 | 0.534 | 0.524 | 0.465 | 0.576 | 0.471 | 0.919 | 0.515 | 0.801 | 0.704 | 0.414 | 0.775 | 0.582 | 0.814 | 0.87 | 0.456
6 | LDPIQYSKHPP [SQSTM1_Y433_T430P] | 0.691 | 0.473 | 0.588 | 0.624 | 0.828 | 0.634 | 0.663 | 0.472 | 0.795 | 0.481 | 0.384 | 0.448 | 0.303 | 0.885 | 0.838 | 0.451
7 | RQGQAYRGQRV [TSHR_Y706_A703G] | 0.718 | 0.338 | 0.339 | 0.452 | 0.447 | 0.649 | 0.805 | 0.509 | 0.47 | 0.48 | 0.454 | 0.458 | 0.453 | 0.552 | 0.334 | 0.489
8 | PELINYHQHYS [BTK_Y361_N365Y] | 0.742 | 1.23 | 1.68 | 0.769 | 0.585 | 0.427 | 0.688 | 0.662 | 0.356 | 0.577 | 0.319 | 0.563 | 0.5 | 1.08 | 1.07 | 0.658
9 | GQSKGYRPKLY [SIPA1L3_Y1376] | 0.43 | 0.316 | 0.393 | 0.357 | 0.454 | 0.411 | 0.489 | 0.45 | 0.4 | 0.416 | 0.431 | 0.329 | 0.387 | 0.662 | 0.824 | 0.531
10 | AERKLYRNVML [ZNF569_Y33_Q29E] | 0.45 | 0.365 | 0.408 | 0.367 | 0.407 | 0.359 | 0.519 | 0.337 | 0.319 | 0.653 | 0.383 | 0.453 | 0.312 | 1.76 | 1.65 | 1.24
11 | PRSRSYFSTSI [REPS2_Y462_S463F] | 0.623 | 0.478 | 0.797 | 0.457 | 0.574 | 0.436 | 0.791 | 0.468 | 0.691 | 0.635 | 0.496 | 0.452 | 0.677 | 1.08 | 0.906 | 0.769
12 | KPLMPCMRYSR [SMARCE1_Y73_Y73C] | 0.821 | 0.404 | 0.535 | 0.407 | 0.476 | 0.452 | 0.791 | 0.458 | 0.517 | 0.756 | 0.538 | 0.781 | 0.444 | 0.808 | 0.558 | 0.485
13 | MKKMHYVDPDR [ST3GAL5_Y99_H104R] | 0.407 | 0.321 | 0.388 | 0.331 | 0.521 | 0.346 | 0.495 | 0.395 | 0.349 | 0.534 | 0.294 | 0.436 | 0.322 | 0.879 | 0.76 | 0.567
14 | TKEPKYEGAGS [KIAA1210_Y1615] | 0.614 | 0.368 | 0.337 | 0.403 | 0.385 | 0.378 | 0.542 | 0.339 | 0.372 | 0.5 | 0.326 | 0.496 | 0.315 | 0.863 | 0.719 | 0.597
15 | ALWYIYSHTRS [ENG_Y614] | 1.1 | 0.679 | 0.768 | 0.487 | 1.03 | 0.572 | 1.33 | 0.47 | 0.523 | 1.14 | 0.418 | 0.807 | 0.423 | 0.931 | 0.711 | 0.451
16 | VDSNPYSHLMA [UBA5_Y53_R55H] | 0.669 | 0.48 | 0.481 | 0.418 | 0.489 | 1.25 | 0.631 | 0.639 | 0.891 | 0.577 | 0.518 | 0.504 | 0.862 | 0.813 | 1.15 | 1.59
17 | RHFTGYRIELQ [INSR_Y818] | 1.01 | 0.472 | 0.56 | 0.531 | 0.661 | 0.544 | 1.37 | 0.604 | 0.401 | 0.989 | 0.546 | 0.805 | 0.525 | 1.77 | 2.13 | 1.38

Row | Sequence | phosphorylation enrichment (AncSZ) | phosphorylation enrichment (EPHB1) | phosphorylation enrichment (EPHB2) | phosphorylation enrichment (FGFR1) | phosphorylation enrichment (FGFR3) | phosphorylation enrichment (Fer (mouse)) | phosphorylation enrichment (Fes) | phosphorylation enrichment (Fyn) | phosphorylation enrichment (Hck) | phosphorylation enrichment (Jak2) | phosphorylation enrichment (MERTK) | phosphorylation enrichment (c-Abl (mouse)) | phosphorylation enrichment (c-Src) | SH2 binding enrichment (Grb2 SH2) | SH2 binding enrichment (SHP2-C SH2) | SH2 binding enrichment (c-Src SH2)
18 | RRIHSYRGYLW [VHL_Y112_H115Y] | 0.646 | 0.614 | 0.605 | 0.581 | 0.915 | 0.676 | 0.905 | 0.551 | 0.64 | 0.717 | 0.488 | 0.375 | 0.517 | 0.902 | 0.534 | 0.53
19 | SHSMRYFFTAV [HLA-C_Y31_D33F] | 1.13 | 0.595 | 0.626 | 0.62 | 0.874 | 0.619 | 1.3 | 0.53 | 0.525 | 1.13 | 0.525 | 0.923 | 0.568 | 1.39 | 1.33 | 1.25
20 | VRFMAYTDETF [F8_Y450] | 1.04 | 0.657 | 0.612 | 0.608 | 0.746 | 0.494 | 1.19 | 0.516 | 0.487 | 1.2 | 0.456 | 0.789 | 0.433 | 0.734 | 0.719 | 0.498
21 | NREGVYRVFAP [TGFBI_Y537_T538R] | 0.603 | 0.364 | 0.376 | 0.409 | 0.495 | 0.397 | 0.556 | 4.68 | 1.79 | 0.484 | 0.533 | 0.636 | 4.67 | 0.755 | 0.774 | 0.436
22 | ITNLLYHVVSW [GBA_Y412_G416S] | 1.46 | 8.05 | 5.99 | 9.38 | 7.83 | 5.89 | 1.35 | 3.23 | 4.84 | 3.17 | 7.13 | 3.22 | 3.8 | 1.25 | 1.15 | 0.944
23 | GSERRYSREGG [PTPRN2_Y139] | 0.703 | 0.5 | 0.413 | 0.4 | 0.412 | 0.386 | 0.468 | 0.479 | 0.356 | 0.45 | 0.415 | 0.46 | 0.463 | 0.678 | 0.646 | 0.475
24 | RRGTGYTLSLP [MAGEC3_Y152] | 0.579 | 0.553 | 0.643 | 0.772 | 0.643 | 0.564 | 0.812 | 0.73 | 0.693 | 0.477 | 0.551 | 0.764 | 0.497 | 0.686 | 0.556 | 0.358
25 | EDKFMYSEFPQ [PTEN_Y240_F241S] | 1.51 | 0.771 | 1.05 | 1.49 | 1.45 | 0.734 | 1.21 | 1.25 | 2.07 | 1.14 | 2.02 | 1.03 | 2.91 | 0.951 | 0.739 | 0.542
26 | DVVKDYAFVHM [RBM14_Y114] | 0.929 | 7.47 | 5.38 | 3.87 | 2.45 | 2.58 | 0.933 | 0.419 | 0.435 | 0.661 | 0.574 | 0.659 | 0.466 | 0.823 | 0.608 | 0.472
27 | NLTVNYKKNLI [SQOR_Y259] | 0.669 | 0.486 | 0.401 | 0.427 | 0.461 | 0.427 | 1.05 | 0.351 | 0.389 | 0.619 | 0.435 | 0.495 | 0.43 | 0.916 | 0.61 | 0.456
28 | ERSMSYCDESR [SMG1_Y143_S144C] | 0.788 | 0.435 | 0.496 | 0.475 | 0.551 | 0.474 | 0.77 | 0.422 | 0.402 | 0.728 | 0.43 | 0.704 | 0.491 | 0.951 | 1.28 | 0.644
29 | KTDVHYRSLGG [DYSF_Y1858] | 0.468 | 0.329 | 0.371 | 0.334 | 0.511 | 0.335 | 0.515 | 0.364 | 0.371 | 0.48 | 0.377 | 0.426 | 0.359 | 0.74 | 0.649 | 0.472
30 | ECKHLYSRKEG [PTPN11_Y263_L261H] | 0.451 | 0.406 | 0.285 | 0.463 | 0.397 | 0.4 | 0.579 | 0.407 | 0.329 | 0.419 | 0.388 | 0.458 | 0.388 | 0.995 | 0.711 | 0.717
31 | AAVDTVCRHNF [HLA-DRB1_Y107_Y107V_YF] | 0.765 | 0.521 | 0.577 | 0.499 | 0.533 | 0.54 | 1.29 | 0.398 | 0.429 | 1.15 | 0.488 | 0.937 | 0.491 | 0.888 | 0.479 | 0.529
32 | SVVVLYEPPEV [TP53_Y220_P219L] | 1.72 | 4.88 | 11 | 0.588 | 0.738 | 5.4 | 1.15 | 0.59 | 1.42 | 1.06 | 3.56 | 1.19 | 0.701 | 0.962 | 0.612 | 0.611
33 | FRIGPYQPSVP [MATR3_Y784_N787S_YF] | 0.712 | 0.604 | 0.543 | 0.517 | 0.616 | 0.5 | 0.868 | 0.453 | 0.537 | 0.662 | 0.412 | 0.536 | 0.478 | 0.843 | 0.782 | 0.657
